We go through one substance from patent US20240132593A1.

The target in test [1] is 2.1C-VISTA-ECD-Fc (human). In words: ELISA on plate-bound VISTA-ECD-Fc. In general terms: ELISA stands for enzyme-linked immunosorbent assay.
A further test has as its target 4.1-VISTA-ECD-Fc (human). The test can be described thus: ELISA on plate-bound VISTA-ECD-Fc.
The target in the next test is 5.1-VISTA-ECD-Fc (human). The test can be described thus: ELISA on plate-bound VISTA-ECD-Fc.
For another test, the target named is RFQ-VISTA-ECD-Fc (human). The test can be described thus: ELISA, 10 ug/mL antibody on plate-bound mutant VISTA-Fc.
Chain of RFQ-VISTA-ECD-Fc (human) (chain, as listed by the source): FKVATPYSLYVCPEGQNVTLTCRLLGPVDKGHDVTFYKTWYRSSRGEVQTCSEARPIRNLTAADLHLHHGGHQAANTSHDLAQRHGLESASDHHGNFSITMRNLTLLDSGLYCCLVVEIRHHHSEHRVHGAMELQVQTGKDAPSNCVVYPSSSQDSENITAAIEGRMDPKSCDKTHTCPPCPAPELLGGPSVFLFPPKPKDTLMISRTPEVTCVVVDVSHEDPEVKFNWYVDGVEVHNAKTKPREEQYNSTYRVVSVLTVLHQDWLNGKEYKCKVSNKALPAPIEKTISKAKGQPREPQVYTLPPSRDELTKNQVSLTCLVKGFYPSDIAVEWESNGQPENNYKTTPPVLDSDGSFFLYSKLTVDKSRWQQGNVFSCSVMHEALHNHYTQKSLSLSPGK

Chain of 2.1C-VISTA-ECD-Fc (human) (chain, as listed by the source): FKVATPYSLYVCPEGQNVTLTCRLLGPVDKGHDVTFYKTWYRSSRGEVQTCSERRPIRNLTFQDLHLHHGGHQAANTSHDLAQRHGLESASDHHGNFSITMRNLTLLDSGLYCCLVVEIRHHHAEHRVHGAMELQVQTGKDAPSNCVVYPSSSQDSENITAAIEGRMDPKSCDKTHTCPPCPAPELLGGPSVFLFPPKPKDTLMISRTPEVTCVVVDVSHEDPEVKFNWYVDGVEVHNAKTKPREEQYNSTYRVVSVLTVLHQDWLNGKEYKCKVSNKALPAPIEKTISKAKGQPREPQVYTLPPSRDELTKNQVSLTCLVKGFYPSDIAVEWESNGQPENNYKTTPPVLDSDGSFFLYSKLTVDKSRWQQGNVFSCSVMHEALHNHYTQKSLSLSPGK
Chain of 5.1-VISTA-ECD-Fc (human) (chain, as listed by the source): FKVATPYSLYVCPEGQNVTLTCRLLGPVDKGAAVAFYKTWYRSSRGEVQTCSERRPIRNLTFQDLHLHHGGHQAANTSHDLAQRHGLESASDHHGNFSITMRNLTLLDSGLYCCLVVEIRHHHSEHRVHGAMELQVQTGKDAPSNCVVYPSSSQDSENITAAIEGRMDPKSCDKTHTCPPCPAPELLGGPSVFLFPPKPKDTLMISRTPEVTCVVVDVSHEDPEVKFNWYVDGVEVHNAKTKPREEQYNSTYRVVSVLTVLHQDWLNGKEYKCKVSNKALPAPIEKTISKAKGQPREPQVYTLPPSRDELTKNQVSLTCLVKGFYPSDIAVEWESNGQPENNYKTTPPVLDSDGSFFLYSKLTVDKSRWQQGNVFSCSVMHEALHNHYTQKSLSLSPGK
Chain of 4.1-VISTA-ECD-Fc (human) (chain, as listed by the source): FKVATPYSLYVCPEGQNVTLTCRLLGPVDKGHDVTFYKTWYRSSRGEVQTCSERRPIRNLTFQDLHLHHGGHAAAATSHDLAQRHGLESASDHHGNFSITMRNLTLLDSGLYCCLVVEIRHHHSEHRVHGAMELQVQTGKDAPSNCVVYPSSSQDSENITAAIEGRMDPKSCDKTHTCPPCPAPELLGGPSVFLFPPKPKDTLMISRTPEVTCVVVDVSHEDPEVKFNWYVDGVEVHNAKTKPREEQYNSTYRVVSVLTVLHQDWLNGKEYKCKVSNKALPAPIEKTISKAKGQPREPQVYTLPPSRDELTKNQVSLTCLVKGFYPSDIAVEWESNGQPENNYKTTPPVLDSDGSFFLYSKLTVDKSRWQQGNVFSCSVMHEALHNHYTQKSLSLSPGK

Regarding IgG1 (antibody), the EC50 (in test [1]; with 4.1-VISTA-ECD-Fc (human); with 5.1-VISTA-ECD-Fc (human)) was 100 µg/mL each time. Besides, in the test with RFQ-VISTA-ECD-Fc (human), the ELISA Abs 450 nm came out at 0.019 Abs 450 nm.

As usually defined, the EC50 is the concentration needed to bring the measured effect to its halfway point. A high value points to a need for much substance.
